Laboratory results as given in patent US20240360223A1 (DRAGONFLY THERAPEUTICS, published 2024).
“And” between values parts separate entries of the source, which are not always exact repeats. Equal values may be shown once.

Columns and labels:
cynomolgus CD16 [1] = molecular target: T1, cynomolgus CD16 (cynomolgus, UniProt Q8SPW2 17-208, limits assumed); assay: SPR, average
T1 construct: also called Cyno CD16; cynomolgus FcγRIII

[2] = molecular target: T2, cynomolgus NKG2D (recombinant mFc-tagged dimer) (cynomolgus, UniProt P61252 78-216); assay: SPR, average
T2 construct: also called cyno NKG2D
T2 sequence (looked up): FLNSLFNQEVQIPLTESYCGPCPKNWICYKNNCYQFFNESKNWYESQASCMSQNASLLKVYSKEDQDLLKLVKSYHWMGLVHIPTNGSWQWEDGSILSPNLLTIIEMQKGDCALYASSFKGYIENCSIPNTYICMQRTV
Description: (§1) Two different fits were utilized to obtain the equilibrium affinity data: steady state affinity fit and kinetic fit.

human CD32a H131 [3] = molecular target: T3, human CD32a H131 (human, UniProt P12318 36-218, limits assumed); assay: SPR, steady state
T3 sequence (looked up): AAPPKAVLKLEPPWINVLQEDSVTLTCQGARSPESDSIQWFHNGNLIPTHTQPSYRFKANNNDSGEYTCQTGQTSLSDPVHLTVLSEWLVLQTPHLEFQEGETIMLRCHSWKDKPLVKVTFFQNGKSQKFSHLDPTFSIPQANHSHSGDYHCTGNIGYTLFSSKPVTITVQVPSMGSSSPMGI

[4] = molecular target: T2, cynomolgus NKG2D (recombinant …); assay: SPR, kinetics fit
Description: as §1

[5] = molecular target: T4, human BAFF-R expressed on cells (human, UniProt Q96RJ3 1-184); assay: KinExA, BAFF-R-CHO cells
T4 construct: Cell surface BAFF-R, endogenous on B cell lines and primary B cells or overexpressed on isogenic CHO cells; also called hBAFF-R; hBAFF-R-CHO

cynomolgus CD16 [6] = molecular target: T1, cynomolgus CD16; assay: SPR, kinetic fit, average
human CD32a H131 [7] = molecular target: T3, human CD32a H131; assay: SPR, steady state, average
[8] = molecular target: T4, human BAFF-R expressed on cells; assay: flow cytometry on hBAFFR-CHO cells, anti-human Fc-g-PE, fold over background

T1 sequence (Q8SPW2 17-208 limits assumed): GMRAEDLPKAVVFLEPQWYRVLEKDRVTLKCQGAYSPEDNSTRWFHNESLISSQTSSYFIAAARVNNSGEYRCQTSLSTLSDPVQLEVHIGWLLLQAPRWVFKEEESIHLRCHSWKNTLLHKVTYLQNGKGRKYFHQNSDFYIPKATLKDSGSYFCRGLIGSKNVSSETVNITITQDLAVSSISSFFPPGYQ

B1: AB1424/AB1612 F3′ TriNKET (bispecific antibody, human IgG1, kappa)
chain: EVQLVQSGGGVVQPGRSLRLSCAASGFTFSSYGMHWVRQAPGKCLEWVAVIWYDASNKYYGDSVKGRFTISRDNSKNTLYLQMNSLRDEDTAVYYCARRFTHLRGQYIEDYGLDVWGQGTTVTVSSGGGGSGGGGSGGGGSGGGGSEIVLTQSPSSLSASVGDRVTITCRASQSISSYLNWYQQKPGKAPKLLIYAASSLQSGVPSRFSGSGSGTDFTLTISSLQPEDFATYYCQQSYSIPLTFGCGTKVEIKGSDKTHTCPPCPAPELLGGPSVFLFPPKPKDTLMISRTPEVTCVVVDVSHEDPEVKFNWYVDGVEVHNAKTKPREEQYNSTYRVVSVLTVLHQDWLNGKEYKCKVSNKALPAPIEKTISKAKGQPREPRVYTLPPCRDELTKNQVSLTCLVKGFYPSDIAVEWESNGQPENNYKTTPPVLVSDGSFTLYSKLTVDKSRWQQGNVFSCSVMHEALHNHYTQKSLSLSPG
heavy: EVQLVESGGGLVKPGGSLRLSCAASGFTFSSYSMNWVRQAPGKGLEWVSSISSSSSYIYYADSVKGRFTISRDNAKNSLYLQMNSLRAEDTAVYYCARGAPIGAAAGWFDPWGQGTLVTVSSASTKGPSVFPLAPSSKSTSGGTAALGCLVKDYFPEPVTVSWNSGALTSGVHTFPAVLQSSGLYSLSSVVTVPSSSLGTQTYICNVNHKPSNTKVDKKVEPKSCDKTHTCPPCPAPELLGGPSVFLFPPKPKDTLMISRTPEVTCVVVDVSHEDPEVKFNWYVDGVEVHNAKTKPREEQYNSTYRVVSVLTVLHQDWLNGKEYKCKVSNKALPAPIEKTISKAKGQPREPQVCTLPPSRDELTENQVSLTCLVKGFYPSDIAVEWESNGQPENNYKTTPPVLDSDGSFFLYSWLTVDKSRWQQGNVFSCSVMHEALHNHYTQKSLSLSPG
light: DIQMTQSPSSVSASVGDRVTITCRASQGISSWLAWYQQKPGKAPKLLIYAASSLQSGVPSRFSGSGSGTDFTLTISSLQPEDFATYYCQQGVSFPRTFGGGTKVEIKRTVAAPSVFIFPPSDEQLKSGTASVVCLLNNFYPREAKVQWKVDNALQSGNSQESVTEQDSKDSTYSLSSTLTLSKADYEKHKVYACEVTHQGLSSPVTKSFNRGEC
notes: Chain S: anti-BAFF-R scFv-CH2-CH3; chain H: anti-NKG2D VH-CH1-CH2-CH3; chain L: anti-NKG2D VL-CL; also called AB1612-002
Kd (cynomolgus CD16 [1]): 271 nM | koff (cynomolgus CD16 [1]): 0.021 s⁻¹ | kon (cynomolgus CD16 [1]): 76000 M⁻¹ s⁻¹ | koff [2]: 0.11 s⁻¹ | kon [2]: 190000 M⁻¹ s⁻¹ | Kd (human CD32a H131 [3]): 900 nM and 1100 nM and 1000 nM | Kd [4]: 609 nM and 617 nM and 572 nM and 587 nM | Kd [5]: 2.55 nM | Kd (cynomolgus CD16 [6]): 271 nM | Kd (human CD32a H131 [7]): 1000 nM | EC50 (read off the curve) [8]: ~0.8 nM
